In patent publication US20120253008A1 (Ablynx, published 2012):
Read-outs that look alike come from different tables or passages of the source.

Assays:
[1] = target: T1, von Willebrand factor (human, UniProt P04275 764-2813); experiment: inhibition ELISA: ristocetin-induced binding of plasma vWF to fixed human platelets (glycoprotein Ib), bound vWF detected with anti-VWF-HRP
T1 construct: vWF of the human plasma in which the compounds were diluted; multimeric; also called vWF; VWF

[2] = target: T2, cynomolgus monkey serum albumin (cynomolgus monkey, UniProt A2V9Z4 25-608); experiment: SPR, BIAcore 3000, CSA on CM5 chip
T2 construct: amine-coupled to a CM5 chip; also called CSA; cynoSA
Method: (§1) The binding was determined in BIAcore™ 3000, by injecting concentration series of the fusion proteins ranging from 2 μM to 200 nM on a CM5 chip coated with ˜3000 RU HSA or CSA. Coating of the chip (CM5) was performed by amine coupling using NHS/EDC for activation and ethanolamine for deactivation (Biacore amine coupling kit). HBS-EP was used as flow buffer at a rate of […]. 90 μl of sample was injected for 120 s.

[3] = target: T3, human serum albumin (human, UniProt P02768 25-609); experiment: SPR, BIAcore 3000, HSA on CM5 chip
T3 construct: also called HSA
Method: as §1, with “For this purpose,” for “The”, “binding to HSA and CSA” for “binding”, “assessed” for “determined”

[4] = target: T2, cynomolgus monkey serum albumin; experiment: SPR, BIAcore 3000, CSA on CM5 chip; remark: listed apart in the source
Method: as §1, with “For this purpose,” for “The”, “binding to HSA and CSA” for “binding”, “assessed” for “determined”

[5] = target: T3, human serum albumin; experiment: SPR, BIAcore 3000, HSA on CM5 chip; remark: listed apart in the source
Method: For this purpose, the fusion proteins were expressed in E. coli TG1 cells. […] Coating of the chip (CM5) was performed by amine coupling using NHS/EDC for activation and ethanolamine for deactivation (Biacore amine coupling kit). HBS-EP was used as flow buffer at a rate of 10 μl min-1. 20 μl of sample was injected for 120 s.

[6] = target: T3, human serum albumin; experiment: phage ELISA, 5-fold phage dilutions on coated HSA, anti-M13 detection, near-infrared fluorescence
Method: 5-fold serial dilutions of phage clones (starting from ˜5×10¹¹ phage) were added to 96-well Nunc Maxisorp plates coated with human serum albumin (2 μg/ml in PBS, overnight at 4° C.; plates were blocked with Superblock T20 (Pierce) for 1 h at room temperature). […] The amount of IRDye bound was measured on Odyssey (LI-COR Biosciences). The dilution of phage was plotted against measured near-infrared fluorescence intensity (FIG. 2).

[7] = target: T3, human serum albumin; experiment: phage competition ELISA: phage pre-incubated with 2 µM HSA, captured on coated HSA
Method: (§2) Unbound phage was captured by transferring 100 μl of the well mixture to the HSA coated Maxisorp plate and incubating at room temperature for 30 minutes. The plate with captured phage was washed with PBS-0.05% Tween 20 five times. Bound phages were detected with anti-M13 and goat-anti mouse IRDye conjugate. The amount of IRDye bound was measured on Odyssey (LI-COR Biosciences). The ratio of phage binding was calculated by the following equation: fluorescence signal of well with competitor/fluorescence signal of well with no competitor (Table III).
After respectively three and four selection rounds, monoclonal phage were screened for binding on HSA, in the manner described in Example 2. Clones that bind to HSA (FIGS. 7A to 7C and Table V) were screened in phage competition ELISA, in the manner described in Example 5. The ratio of phage binding was calculated by the following equation: fluorescence signal of well with 2 μM competitor/fluorescence signal of well with no competitor (Table VI).

[8] = target: T3, human serum albumin; experiment: solution binding competition ELISA: phage pre-incubated with 1 µM HSA, captured on coated HSA
Method: A competition ELISA was performed to determine the relative binding affinity for the selected phage clones. 96-well Nunc Maxisorp plates were coated with 2 μg/ml HSA in coating buffer at 4° C. Plates were blocked with SuperblockT20 (Pierce) for 1 h at room temperature. The microtiter plates were washed with wash buffer (PBS, 0.05% Tween 20).
as §2

T2 sequence (A2V9Z4 25-608 limits assumed): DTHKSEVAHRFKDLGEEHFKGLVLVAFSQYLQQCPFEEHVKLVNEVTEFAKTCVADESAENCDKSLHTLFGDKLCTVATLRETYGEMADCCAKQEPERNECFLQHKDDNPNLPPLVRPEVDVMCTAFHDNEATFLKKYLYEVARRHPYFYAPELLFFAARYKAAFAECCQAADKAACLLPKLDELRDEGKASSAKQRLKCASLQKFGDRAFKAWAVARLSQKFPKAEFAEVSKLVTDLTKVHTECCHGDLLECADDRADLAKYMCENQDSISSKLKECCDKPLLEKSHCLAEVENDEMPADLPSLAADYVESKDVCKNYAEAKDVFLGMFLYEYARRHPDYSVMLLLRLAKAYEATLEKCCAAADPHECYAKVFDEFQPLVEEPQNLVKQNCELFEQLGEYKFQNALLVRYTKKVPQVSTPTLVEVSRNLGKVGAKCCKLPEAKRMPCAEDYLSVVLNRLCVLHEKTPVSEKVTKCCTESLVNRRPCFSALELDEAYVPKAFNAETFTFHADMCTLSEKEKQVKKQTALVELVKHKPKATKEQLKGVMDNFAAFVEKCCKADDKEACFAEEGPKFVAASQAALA

B1: vWF0054 (VHH)
single chain fusion protein: DVQLVESGGGLVQPGGSLRLSCAASGRTFSYNPMGWFRQAPGKGRELVAAISRTGGSTYYPESVEGRFTISRDNAKRTVYLQMNSLRAEDTAVYYCAAAGVRAEQGRVRTLPSEYTFWGQGTQVTVSSGGGGSGGGSRDWDFDVFGGGTPVGGGGGGSGGGSRDWDFDVFGGGTPVGGGGGGSGGGSEVQLVESGGGLVQPGGSLRLSCAASGRTFSYNPMGWFRQAPGKGRELVAAISRTGGSTYYPESVEGRFTISRDNAKRTVYLQMNSLRAEDTAVYYCAAAGVRAEQGRVRTLPSEYTFWGQGTQVTVSS
notes: also called 12A2 sv1-9GS-59C2-9GS-59C2-9GS-12A2 sv1
- binding result [1]: binds

B2: 12A2_sv1-AAA-12A2_sv1 (VHH)
chain: DVQLVESGGGLVQPGGSLRLSCAASGRTFSYNPMGWFRQAPGKGRELVAAISRTGGSTYYPESVEGRFTISRDNAKRTVYLQMNSLRAEDTAVYYCAAAGVRAEQGRVRTLPSEYTFWGQGTQVTVSSAAAEVQLVESGGGLVQPGGSLRLSCAASGRTFSYNPMGWFRQAPGKGRELVAAISRTGGSTYYPESVEGRFTISRDNAKRTVYLQMNSLRAEDTAVYYCAAAGVRAEQGRVRTLPSEYTFWGQGTQVTVSS
notes: also called vWF-001; vWF-0001
- IC50 (read off the curve) [1]: ~10 nM

B3: 12A2 sv1-9GS-59C2-9GS-12A2 sv1 (VHH)
chain: DVQLVESGGGLVQPGGSLRLSCAASGRTFSYNPMGWFRQAPGKGRELVAAISRTGGSTYYPESVEGRFTISRDNAKRTVYLQMNSLRAEDTAVYYCAAAGVRAEQGRVRTLPSEYTFWGQGTQVTVSSGGGGSGGGSRDWDFDVFGGGTPVGGGGGGSGGGSEVQLVESGGGLVQPGGSLRLSCAASGRTFSYNPMGWFRQAPGKGRELVAAISRTGGSTYYPESVEGRFTISRDNAKRTVYLQMNSLRAEDTAVYYCAAAGVRAEQGRVRTLPSEYTFWGQGTQVTVSS
notes: also called vWF-0053; vWF 0053
- binding result [1]: binds

B4: 12A2 sv1-AAA-12A2 sv1-9GS-59C2-9GS-59C2 (VHH)
chain: DVQLVESGGGLVQPGGSLRLSCAASGRTFSYNPMGWFRQAPGKGRELVAAISRTGGSTYYPESVEGRFTISRDNAKRTVYLQMNSLRAEDTAVYYCAAAGVRAEQGRVRTLPSEYTFWGQGTQVTVSSAAAEVQLVESGGGLVQPGGSLRLSCAASGRTFSYNPMGWFRQAPGKGRELVAAISRTGGSTYYPESVEGRFTISRDNAKRTVYLQMNSLRAEDTAVYYCAAAGVRAEQGRVRTLPSEYTFWGQGTQVTVSSGGGGSGGGSRDWDFDVFGGGTPVGGGGGGSGGGSRDWDFDVFGGGTPVGG
notes: also called vWF-0056; VWF0056
- IC50 (read off the curve) [1]: ~20 nM

B5: 2D3-9GS-56E4 (other)
chain: EVQLVESGGSLVQPGGSLRLSCAASGFTFDDYAMSWVRQVPGKGLEWVSSINWSGTHTDYADSVKGRFTISRNNANNTLYLQMNSLKSEDTAVYYCAKNWRDAGTTWFEKSGSAGQGTQVTVSSGGGGSGGGSRYWDYDVFGGGTPVGG
notes: untagged; Nanobody 2D3, 9GS linker, 56E4 without the two N-terminal alanines; also called 2D3-9GS-EXP56E4
- Kd [2]: 495 nM
- kon [2]: 17100 M⁻¹ s⁻¹

B6: 2D3-9GS-59C2 (other)
chain: EVQLVESGGSLVQPGGSLRLSCAASGFTFDDYAMSWVRQVPGKGLEWVSSINWSGTHTDYADSVKGRFTISRNNANNTLYLQMNSLKSEDTAVYYCAKNWRDAGTTWFEKSGSAGQGTQVTVSSGGGGSGGGSRDWDFDVFGGGTPVGG
notes: untagged; also called 2D3-9GS-EXP59C2; 2D3-EXP59C2
- Kd [2]: 276 nM
- kon [2]: 8980 M⁻¹ s⁻¹

B7: 2D3-9GS-56E4-MycHis (other)
chain: EVQLVESGGSLVQPGGSLRLSCAASGFTFDDYAMSWVRQVPGKGLEWVSSINWSGTHTDYADSVKGRFTISRNNANNTLYLQMNSLKSEDTAVYYCAKNWRDAGTTWFEKSGSAGQGTQVTVSSGGGGSGGGSAAARYWDYDVFGGGTPVGGAAAEQKLISEEDLNGAAHHHHHH
- Kd [3]: 991 nM
- koff [3]: 0.00497 s⁻¹
- kon [3]: 5020 M⁻¹ s⁻¹
- Kd [4]: 2110 nM
- kon [4]: 4010 M⁻¹ s⁻¹

B8: 2D3-9GS-59F2-MycHis (other)
chain: EVQLVESGGSLVQPGGSLRLSCAASGFTFDDYAMSWVRQVPGKGLEWVSSINWSGTHTDYADSVKGRFTISRNNANNTLYLQMNSLKSEDTAVYYCAKNWRDAGTTWFEKSGSAGQGTQVTVSSGGGGSGGGSAAARYWDFDVFGGGTPVGGAAAEQKLISEEDLNGAAHHHHHH
- Kd [3]: 571 nM
- koff [3]: 0.00351 s⁻¹
- kon [3]: 6140 M⁻¹ s⁻¹
- Kd [4]: 1040 nM
- kon [4]: 4850 M⁻¹ s⁻¹

B9: 2D3-56H5 fusion protein (other)
chain: EVQLVESGGSLVQPGGSLRLSCAASGFTFDDYAMSWVRQVPGKGLEWVSSINWSGTHTDYADSVKGRFTISRNNANNTLYLQMNSLKSEDTAVYYCAKNWRDAGTTWFEKSGSAGQGTQVTVSSGGGGSGGGSAAAFYDDYDVFGGGTPAGGAAAEQKLISEEDLNGAAHHHHHH
- Kd [5]: ~1200 nM
- koff [5]: 0.0093 s⁻¹
- kon [5]: 7570 M⁻¹ s⁻¹

B10: 2D3-9GS-59C2-MycHis (other)
chain: EVQLVESGGSLVQPGGSLRLSCAASGFTFDDYAMSWVRQVPGKGLEWVSSINWSGTHTDYADSVKGRFTISRNNANNTLYLQMNSLKSEDTAVYYCAKNWRDAGTTWFEKSGSAGQGTQVTVSSGGGGSGGGSAAARDWDFDVFGGGTPVGGAAAEQKLISEEDLNGAAHHHHHH
- Kd [3]: 481 nM
- koff [3]: 0.00179 s⁻¹
- kon [3]: 3730 M⁻¹ s⁻¹
- Kd [4]: 775 nM
- kon [4]: 2750 M⁻¹ s⁻¹

B11: 2D3-9GS-59H12-MycHis (other)
chain: EVQLVESGGSLVQPGGSLRLSCAASGFTFDDYAMSWVRQVPGKGLEWVSSINWSGTHTDYADSVKGRFTISRNNANNTLYLQMNSLKSEDTAVYYCAKNWRDAGTTWFEKSGSAGQGTQVTVSSGGGGSGGGSAAARSWDFDVFGGGTPVGGAAAEQKLISEEDLNGAAHHHHHH
- Kd [3]: 663 nM
- koff [3]: 0.00304 s⁻¹
- kon [3]: 4590 M⁻¹ s⁻¹
- Kd [4]: 1280 nM
- kon [4]: 3450 M⁻¹ s⁻¹

Binder: AAYYYDYDVFGGGTPGGE [PMP56E2]
- binding result [6]: binds

Binder: AARYWDYDVFGGGTPVGG (also called EXP56E4) [PMP56E4]
- Ratio 2 µM/0 µM HSA [7]: 0.82

Binder: AARDWDFDVFGGGTPVGG [59C2]
- Ratio 2 µM/0 µM HSA [7]: 0.91

Binder: AARYWDFDVFGGGTPVGG [59F2]
- Ratio 2 µM/0 µM HSA [7]: 0.69

Binder: AARSWDFDVFGGGTPVGG [59H12]
- Ratio 2 µM/0 µM HSA [7]: 0.87

Binder: AASYSDYDVFGGGTDFGP [17D12]
- binding result [6]: binds

Binder: AALYDDYDVFGGGTPVGG (also called 01C7; PMP26A3) [PMP56A3]
- Ratio 1 µM/0 µM HSA [8]: 0.47

Binder: AALYDDYDVFGGGTPAGG [01B3]
- Ratio 1 µM/0 µM HSA [8]: 0.42

Binder: AAFYDDYDVFGGGTPAGG (also called 01G7) [PMP56H5]
- Ratio 1 µM/0 µM HSA [8]: 0.43

Binder: AAPYRDYDVFGGGTPRGE [PMP56F2]
- binding result [6]: binds
